Positions of bridges follow the written chain, without caps; N, C: chain ends. Non-standard residues stand in square brackets, D forms with d. No end group written: not given here. AlaL = alanine half of a lanthionine (monosulfide) bridge
Columns and labels:
[1] = biological target: T1, µ-receptor (guinea pig ileum preparation) (guinea pig); assay: cell-based or functional assay
[2] = biological target: T1, µ-receptor (guinea pig ileum …); assay: cell-based or functional assay; remark: listed apart in the source
[3] = biological target: SSTR2 Receptor (cloned somatostatin receptor); assay: inhibition of radioligand binding to cloned SSTR2
Chain of SSTR2 Receptor (cloned somatostatin receptor) (P30875 whole entry): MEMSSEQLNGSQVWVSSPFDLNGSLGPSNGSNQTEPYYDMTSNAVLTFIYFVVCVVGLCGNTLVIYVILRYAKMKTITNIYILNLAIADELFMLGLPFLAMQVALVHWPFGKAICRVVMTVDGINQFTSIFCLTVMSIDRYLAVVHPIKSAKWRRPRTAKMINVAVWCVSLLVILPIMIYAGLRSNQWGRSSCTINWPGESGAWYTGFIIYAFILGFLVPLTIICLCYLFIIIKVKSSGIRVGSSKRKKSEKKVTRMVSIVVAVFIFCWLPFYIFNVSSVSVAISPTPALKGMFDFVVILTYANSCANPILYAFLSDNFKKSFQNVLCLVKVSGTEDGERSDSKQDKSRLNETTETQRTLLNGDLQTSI

Binder | bioactivity at the GPI relative to [Leu^5]-enkephalin [1] | GPI IC50 [2] | IC50 [3]
Y[dAlaL]GF[AlaL]-NH2 (bridge 2-5; not fully specified (bridges); printed as Tyr-c[D-AlaL-Gly-Phe-L-AlaL]-NH2) [Tyr-c[D-AlaL-Gly-Phe-L-AlaL]-NH2] | 400 fold | 0.62 nM | 
Y[dAlaL]GF[AlaL]-OH (bridge 2-5; not fully specified (bridges); printed as Tyr-c[D-AlaL-Gly-Phe-L-AlaL]-OH) [Tyr-c[D-AlaL-Gly-Phe-L-AlaL]-OH] |  | 0.45 nM | 
AG[AlaL]KNFFWKTFTS[AlaL] (bridge 3-14; not fully specified (bridges); printed as c[AlaL3, AlaL14]-Somatostatin-14) [c[AlaL3, AlaL14]-Somatostatin-14] |  |  | 0.3 nM
